Reference: US20260258143A1 (published 2026)
Where a chain is given by its changes, count along the chain named. Like-named read-outs stand apart in the source and are kept apart here. Values belong to the binder of their own block, whether it stands above or below them.

Key:
Assay in all cases: SPR
83B05Hu1_A = target: 83B05Hu1_A
cynomolgus CD25 [1] = target: cynomolgus CD25
[2] = target: T1, human CD25-extracellular domain (CD25-ECD) (UniProt P01589 22-240)
T1 chain: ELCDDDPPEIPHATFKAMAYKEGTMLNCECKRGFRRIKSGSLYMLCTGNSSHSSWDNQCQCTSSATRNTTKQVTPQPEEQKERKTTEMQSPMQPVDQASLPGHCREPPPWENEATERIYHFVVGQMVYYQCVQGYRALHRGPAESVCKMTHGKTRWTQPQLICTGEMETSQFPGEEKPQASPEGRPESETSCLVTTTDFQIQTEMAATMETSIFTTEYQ

[3] = target: T1, human CD25-extracellular domain …
cynomolgus CD25 [4] = target: cynomolgus CD25; remark: listed apart in the source
[5] = target: T1, human CD25-extracellular domain …
[6] = target: T1, human CD25-extracellular domain …
[7] = target: T1, human CD25-extracellular domain …
[8] = target: T1, human CD25-extracellular domain …
cynomolgus CD25 [9] = target: cynomolgus CD25; remark: listed apart in the source
cCD25 = target: cCD25
[10] = target: T1, human CD25-extracellular domain …
cynomolgus CD25 [11] = target: cynomolgus CD25; remark: listed apart in the source
[12] = target: T1, human CD25-extracellular domain …
[13] = target: T1, human CD25-extracellular domain …
cynomolgus CD25 [14] = target: cynomolgus CD25; remark: listed apart in the source
[15] = target: T1, human CD25-extracellular domain …

B2: ODY-83B05Hu1 (VHH)
VHH: EVQLLESGGGLVQPGGSLRLSCAASGFTLDYYAIGWFRQAPGKEREGVLSISSTDGRTYYADSVKGRFTISRDNPKNTVYLQLNSLRPEDTAVYYCAAKRLGPMVHRYSLEVLTPLFLDEYDYWGQGTQVTVSS
- Kd (cynomolgus CD25 [1]): 97 nM
- Kd [2]: 35 nM

B3: ODY-83F07Hu1 (VHH)
VHH: B2 VHH with R107Q
- Kd [3]: 58 nM
- Kd (cynomolgus CD25 [4]): 97 nM

B4: 83B05Hu1_L (antibody, V domains shown)
VH: B2 VHH with M104L
- Kd [5]: 61 nM

B5: 83F07Hu1_L (antibody, V domains shown)
VH: B2 VHH with M104L, R107Q
- Kd [6]: 97 nM

B7: 47D3 (VHH)
VHH: EVQLLESGGGLVQPGGSLRVSCAASGRTFSWNGMGWFRQAPGKEREFVAAISQSGGRTRYADSVKGRFTISRDNAKNTVYLQMNSLRPEDTAVYYCAASDFLLATTISAYDYWGQGTQVTVSS
- Kd (cynomolgus CD25 [9]): 49 nM
- Kd (cCD25): 49 nM

B9: ODY-46A3 (VHH)
VHH: EVQLLESGGGLAQPGGSLRLSCAASGFTFSNYAMSWARQAPGKGLEWVSGIYSDGSGTYYADSVKGRFTISRDNAKNTVYLQMNSLRPEDTAVYYCAKGRNSGSYYPWDDYWGQGTQVTVSS
- Kd (cynomolgus CD25 [11]): 34 nM

B11: ODY-83B03Hu1 (VHH)
VHH: EVQLVESGGGLVQPGGSLRLSCAASGMPLVAMGWYRQAPGKQRELVASISSGGNTGYADSVKGRFTISRDNAKKTVYLQMNSVRPEDTGVYYCNIYRSQVPPTRYSWGQGTQVTVSS
- Kd [13]: 21 nM
- Kd (cynomolgus CD25 [14]): 112 nM

The next lines start with the values.

- Kd (83B05Hu1_A): 76 nM
B1: human CD25 (receptor)
chain: T1 chain

- Kd [7]: 1.6 nM
- Kd [8]: 1.6 nM
B6: humanized anti-CD25 V-body 47D3 (VHH)
VHH: B7 VHH

- Kd [8]: 49 nM
- Kd [10]: 49 nM
B8: humanized anti-CD25 V-body 46A3 (VHH)
VHH: B9 VHH

- Kd [12]: 50 nM
B10: ODY-N1813Hu1 (antibody, V domains shown)
VH: B9 VHH with G55S, N101G, W108F, D109E

- Kd [15]: 17 nM
B12: ODY-N2002Hu1 (antibody, V domains shown)
VH: EVQLVESGGGLVQPGGSLRLSCAVSGRSFSTLIMAWYRQAPGKQRELVATIDRGGTTTYADSVKGRFTISRDNAKNTVYLQMNSLRPEDTAVYYCKTLRYWGQGTQVTVSS
